How the values were obtained:
GAL4 reporter = experiment: GAL4 DBD-TIF2 fusion CAT reporter transactivation assay; type: cell-based; conditions: Cos-1 and/or HeLa cells
How it was run: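 Transiently transfected HeLa and Cos-1 cells received plasmids (3 μg; 1-10 μg in titration) expressing TIF2 regions or mutants fused to GAL4 DBD(1-147), plus 1 μg (17m)5-G-CAT reporter. CAT activity measured by TLC phosphoimaging or CAT ELISA, normalized to cotransfected β-galactosidase, expressed as fold over GAL4 DBD alone; mean of ≥3 experiments.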

[1] = test system: CBP (residues 1872 to 2165); experiment: GST-CBP pull-down of TIF2 polypeptides; type: binding
Protocol: (d) Mapping of the CBP-interacting domain of TIF2. GST puld own experiments were performed with ^35S-labeled in-vitro-translated TIF2 polypeptides and bacterially produced GST and GST-CBP (expressing CBP residues 1872 to 2165).
(c) Interaction of TIF2 AF-1 mutants with CBP in vitro. GST pull-down experiments were performed with ^35S-labeled in-vitro-translated GAL-TIF2 fusion proteins and bacterially produced GST and GST-CBP.
(c) Interaction of TIF2.13 wildtype and TIF2.13 mutants with CBP in vitro. GST pull-down experiments were performed with ^35S-labeled in-vitro-translated VP16-TIF2.13 polypeptides and bacterially produced GST and GST-CBP.
Furthermore, it was reported that SRC-1, which belongs to the same gene family as TIF2, interacts with CBP and p300 (Kamei, Y. et al., Cell 85:403-414 (1996); Yao, T. P. et al., Proc. Natl. Acad. Sci. USA 93:10626-10631 (1996); Hanstein, B., et al., Proc. Natl. Acad Sci USA 93:11540-11545 (1996)). Using GST-fusion protein-based interaction and animal cell-based two hybrid assays, we therefore analyzed whether TIF2 could also interact with CBP. […] A GST-CBP fusion protein was expressed in E. coli and used for puU-down assays with in vitro translated TIF2 polypeptides (FIG. 7d).

[2] = molecular target: T1, GST-hERα(DEF) (pGEX2T-hERα(DEF), amino acids 282-595) (human, UniProt P03372 282-595); experiment: GST pull-down with 35S in-vitro-translated TIF2 polypeptides, with or without 10^-6 M estradiol
T1 construct: range 282-595; Bacterially produced; also used 32P-labelled as Far-Western probe; also called GST-ER; GST-ER(DEF); not shown: glutathione-S-transferase (GST) of pGEX2T (Pharmacia)
T1 sequence (looked up): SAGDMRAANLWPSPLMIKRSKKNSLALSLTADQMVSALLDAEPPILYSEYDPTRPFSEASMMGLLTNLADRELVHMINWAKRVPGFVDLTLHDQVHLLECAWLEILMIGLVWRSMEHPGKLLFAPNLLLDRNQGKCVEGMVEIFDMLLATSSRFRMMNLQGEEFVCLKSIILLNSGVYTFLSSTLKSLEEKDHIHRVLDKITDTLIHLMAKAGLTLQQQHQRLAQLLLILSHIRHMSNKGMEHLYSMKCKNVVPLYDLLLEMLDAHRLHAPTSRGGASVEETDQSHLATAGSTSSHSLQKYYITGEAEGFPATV

B1: TIF2.2 (TIF2 amino acids 1288-1464) (other)
chain: NPRIPQANAQQFPFPPNYGISQQPDPGFTGATTPQSPLMSPRMAHTQSPMMQQSQANPAYQAPSDINGWAQGNMGGNSMFSQQSPPHFGQQANTSMYSNNMNINVSMATNTGGMSSMNQMTGQISMTSVTSVSTSGLSSMGPEQVNDPALRGGNLFPNQLPGMDMIKQEGDTTRKYC
notes: In-vitro-translated; also called AD2
transcriptional activation of GAL4 reporter by GAL4 DBD fusion (GAL4 reporter): able to activate transcription
binding to GST-CBP in vitro [1]: did not show any binding
binding result [2]: no binding

From patent US6861508B2, “Transcriptional intermediary factor-2” (Institut National de la Sante et de la Recherche Medicale, priority 1996, dated 2005)
